Measured values from US6852686B2, “Methods for ameliorating icthyosiform skin diseases” (The United States of America as represented by the …, priority 1999, dated 2005).
Read-outs that look alike come from different tables or passages of the source.

Tests used:
[1] = biological target: T1, TGase 1 (Homo sapiens, UniProt P22735); test: Free Ca++ dependence of 14C-putrescine incorporation by TGase 1; type: biochemical
T1 construct: Recombinant full-length human TGase 1 and TGase 3 enzymes were expressed in Sf9 cells by the BaculoGold system; made in house; host or cells: Sf9 insect cells, BaculoGold baculovirus system, pVL1392 vector
T1 sequence (P22735 1-817): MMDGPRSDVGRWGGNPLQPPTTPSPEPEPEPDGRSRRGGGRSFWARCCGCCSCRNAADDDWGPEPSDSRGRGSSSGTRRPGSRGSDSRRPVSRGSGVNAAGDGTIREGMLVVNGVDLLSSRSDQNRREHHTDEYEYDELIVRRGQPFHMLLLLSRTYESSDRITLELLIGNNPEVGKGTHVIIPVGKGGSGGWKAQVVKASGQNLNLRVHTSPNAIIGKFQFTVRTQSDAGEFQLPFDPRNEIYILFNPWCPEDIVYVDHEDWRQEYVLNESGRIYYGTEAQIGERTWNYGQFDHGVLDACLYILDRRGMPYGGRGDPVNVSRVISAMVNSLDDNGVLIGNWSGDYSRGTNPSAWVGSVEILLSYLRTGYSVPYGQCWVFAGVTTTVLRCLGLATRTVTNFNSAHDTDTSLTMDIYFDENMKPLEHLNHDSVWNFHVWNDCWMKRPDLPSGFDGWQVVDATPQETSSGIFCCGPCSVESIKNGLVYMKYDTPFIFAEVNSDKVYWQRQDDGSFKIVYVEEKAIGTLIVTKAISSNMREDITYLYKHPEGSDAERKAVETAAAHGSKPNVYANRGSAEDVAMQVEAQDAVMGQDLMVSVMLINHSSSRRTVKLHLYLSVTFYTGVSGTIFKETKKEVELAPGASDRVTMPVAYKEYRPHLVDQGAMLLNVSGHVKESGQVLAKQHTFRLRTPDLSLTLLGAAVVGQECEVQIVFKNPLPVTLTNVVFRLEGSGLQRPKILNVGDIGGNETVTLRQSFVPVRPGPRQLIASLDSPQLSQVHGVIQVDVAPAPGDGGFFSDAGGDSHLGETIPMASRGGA
Description: Activity values are given as percent of the values measured at 1 mM Ca^++. […] Points represent the means±s.d. of three independent measurements.
The optimal Ca^++ ion concentration required for the TGase 1 reaction has not been measured for any substrate. Standard in vitro solution assays contain 1-5 mM Ca^++. (Folk, J. E. and J. S. Finlayson, Adv. Protein Chem., 31: 1-133 (1977); Folk, J. E., Adv. Enzymol. Related Areas Mol. Biol., 54: 1-56 (1983); and Lorand, L. S. M. Conrad, Mol. Cell Biochem., 58: 9-35 (1984)). […] (FIG. 6, open symbols). […] (FIG. 2).
(§1) The Ca^++ concentrations in the μM range were set by buffering free Ca^++ with chelators The desired Ca^++/chelator ratios were calculated by the WinMaxC 1.7 computer program (Bers, et al., Methods in Cell Biology Vol 40: A Practical Guide to the Study of Ca^2+ in Living Cells, Nuccitelli, R., ed., pp. 1-327 (1994), herein expressly incorporated by reference in its entirety), and were made by adding the required amounts of 1 M CaCl2 to 0.2 M stock solutions of the following chelators at pH 8.0. Final chelator concentrations in the samples were 10 mM in all cases. Sodium citrate was the chelator for the 20-500 μM Ca^++ range; sodium nitrilotriacetate for the 1-20 μM Ca^++ range; and sodium 1,2-bis(aminophenoxy)ethane-N,N,N′,N′ tetraacetate for the 0.1-1 μM Ca^++ range.

[2] = test system: synthetic lipid vesicles (SLV); test: Membrane association (binding) to synthetic lipid vesicles, SLV pelleted by ultracentrifugation
Description: Mixtures of dipalmitoyl-phosphatidylcholine, cholesterol, dipalmitoyl-phosphatidylserine (PS) and other lipids where indicated (all from Sigma, St. Louis, Mo.) were made in chloroform-methanol (95:5). In all cases, the mixtures contained 30% cholesterol. When the amounts of PS or other individual components were varied, phosphatidylcholine was added to make the mixture to 100%. Mixtures were made in 0.5 ml and contained 10 μmol of total lipids. The solvent was flushed away under a stream of N2, dried further under high vacuum for 4 h and then resuspended by vortexing in 0.5 ml of a buffer containing 50 mM Tris-Cl (pH 8.0), 100 mM NaCl, 3 mM NaN3, 5 mM DTT, and 200 mM sucrose. The mixture was sonicated on ice five times each for 1 min using a Branson 250 sonifier with micro probe tip, and allowed to stand at 23° C. to facilitate assembly of SLV. After 1 h the SLV were diluted with 0.5 ml of the above buffer without sucrose, and 200 μl aliquots were centrifuged at 100,000× g for 30 min in a Beckman Airfuge using the A-10 rotor. The top 175 μl was removed, and the pellet resuspended in another 150 μl of sucrose-free buffer. The final stock concentration was 11 μmol/ml.
In all cases, the buffer contained 50 mM Tris-HCl (pH 8.0), 100 mM NaCl, 1 mM DTT, 3 mM NaN3, and other additives where noted. Some mixtures also contained 1 mM CaCl2 or 2 mM EDTA. After mixing, the samples were centrifuged for 45 min at 100,000× g, and the protein content from 50 μl of supernatant was determined by amino acid analysis after acid hydrolysis. Data were usually not corrected for loss of SLV lipids, as in control experiments, cumulated losses were <4% as assayed by ^14C-phosphatidylcholine tracer, and thus neglected from the calculations.
as §1

[3] = biological target: T1, TGase 1; test: 14C-putrescine labeling of involucrin Gln residues by TGase 1; type: biochemical
Description: This was set far below saturating amounts on SLV in order to ensure that all enzyme was bound to the SLV.
After 4 h incubation at 37° C., the reactions were stopped by addition of EDTA to 10 mM and 100 μl 20% SDS, and vortexed. This mixture was precipitated and washed three times with acetone-triethylamine-acetic acid (90:5:5) (Konigsberg, W. H. and L. Henderson, Meth. Enzymol., 91: […] (1983), herein expressly incorporated by reference in its entirety) to remove the SDS and the lipids. After repeated washings with acetone, the pellet was redissolved in a buffer of 50 mM Tris-Cl (pH 7.5), and digested for 16 h at 37° C. with 2% (by weight) of modified trypsin (Boehringer Mannheim, Indianapolis, Ind.). Aliquots of 20 μg were resolved on a 250×4.6 mm Beckman Ultrasphere C18 HPLC column. Separated peaks were analyzed for radioactivity and peaks containing activity were attached to a solid support for sequencing as before (Steinert, P. M. and L. N. Marekov, J. Biol. Chem., 270: 17702-17711 (1995), herein expressly incorporated by reference in its entirety). As the peptide number 40 eluted by 50% acetonitrile (see FIG. 9) was too long for direct sequencing, it was subjected to limited proteolysis by dispase and was sequenced from four peptides isolated by HPLC chromatography as above. […]

[4] = biological target: T1, TGase 1; test: Kinetic parameters of 14C-putrescine incorporation by TGase 1; type: biochemical; conditions: for Km: KM pertains to the protein substrate, read-out: KM(app); for Vmax / kcat(putrescine): putrescine incorporation, 37° C.
From the text: One possibility is that this KM increase is due to the reduced diffusional mobility of the enzyme after attachment to the SLV. […] (Table 1). One reason for this is that a reduced access to many of the Gln residues occurs after anchorage of the enzyme. On the other hand, the Vmax value for the recombinant SPR2 substrate was almost unchanged.
The reaction rates were quantified by measuring the incorporated radioactivity as before (Thomas, M. V., Cellular Calcium, McCormack, et al., eds., pp. 115-123 (1991), herein expressly incorporated by reference in its entirety). Kinetic constants were obtained using the curve-fitting and regression analysis Sigmaplot 4.0 software. All data points represent the means of three measurements, each performed in triplicate.

[5] = SLV containing 15% PS compared to solubilized TGase 1 and soluble involucrin

B1: TGase 1: recombinant full-length human transglutaminase 1 expressed in Sf9 cells by baculovirus, solubilized or bound to SLV (protein)
chain: T1 sequence (P22735 1-817)
Ca++ concentration above which enzyme becomes active in cross-linking ([1]; TGase 1 bound to SLV): above 10 μM
lowering of Ca++ concentration required for cross-linking of involucrin versus soluble enzyme and substrate ([1]; membrane-bound versus soluble TGase 1): 10 fold
Ca++ concentration above which enzyme becomes active in cross-linking ([1]; solution assays): above 100 μM
saturating amount on SLV ([2]; SLV composed of 15% PS): approximately 0.9 nmol of TGase 1/μmol of lipid
binding to SLVs ([2]; TGase 1 purified by the NH2OH—HCl method (S-acyl adducts hydrolysed)): unable to bind to SLVs
binding to SLVs ([2]; TGase 1 purified from Triton X-100 extracts (lipid adducts retained)): spontaneously associates with SLVs

B2: Involucrin: recombinant purified human involucrin expressed in E. coli (protein)
chain: MSQQHTLPVTLSPALSQELLKTVPPPVNTHQEQMKQPTPLPPPCQKVPVELPVEVPSKQEEKHMTAVKGLPEQECEQQQKEPQEQELQQQHWEQHEEYQKAENPEQQLKQEKTQRDQQLNKQLEEEKKLLDQQLDQELVKRDEQLGMKKEQLLELPEQQEGHLKHLEQQEGQLKHPEQQEGQLELPEQQEGQLELPEQQEGQLELPEQQEGQLELPEQQEGQLELPEQQEGQLELPQQQEGQLELSEQQEGQLELSEQQEGQLKHLEHQEGQLEVPEEQMGQLKYLEQQEGQLKHLDQQEKQPELPEQQMGQLKHLEQQEGQPKHLEQQEGQLEQLEEQEGQLKHLEQQEGQLEHLEHQEGQLGLPEQQVLQLKQLEKQQGQPKHLEEEEGQLKHLVQQEGQLKHLVQQEGQLEQQERQVEHLEQQVGQLKHLEEQEGQLKHLEQQQGQLEVPEQQVGQPKNLEQEEKQLELPEQQEGQVKHLEKQEAQLELPEQQVGQPKHLEQQEKHLEHPEQQDGQLKHLEQQEGQLKDLEQQKGQLEQPVFAPAPGQVQDIQPALPTKGEVLLPVEHQQQKQEVQWPPKHK
putrescine incorporated ([3]; membrane-bound TGase 1 (Sf9 particulate membranes or SLV with 15% PS)): approximately 1 mol of putrescine/mol of invol
putrescine incorporated ([3]; solubilized recombinant TGase 1, no membranes or SLV, 20 mM putrescine, 4 h, 37° C.): about 20 mol of putrescine incorporated/mol of involucrin
decrease of KM [4, 5]: approximately 40 fold
decrease of kcat value [4, 5]: 200 fold
kinetic parameters as a substrate ([4]; SLV formulated in the absence of PS): immeasurably low
Km ([4]; SLV-bound TGase 1 (15% PS)): 2.9 ± 0.4 µM
Vmax ([4]; SLV-bound TGase 1 (15% PS)): 2.4 ± 0.4 pmol/min
kcat(putrescine) ([4]; SLV-bound TGase 1 (15% PS)): 2.55 min⁻¹
Vmax ([4]; Solubilized TGase 1, 0.94 pmol): 482 ± 37 pmol/min
kcat(putrescine) ([4]; Solubilized TGase 1, 0.94 pmol): 513 min⁻¹
Km ([4]; Solubilized TGase 1): 114 ± 19 µM
Ca++ concentration above which binding to SLV occurs ([2]; SLV containing 12-18% phosphatidylserine): above 1 μM
amount saturating SLV ([2]; SLVs containing 15-30% PS): 0.43±0.02 nmol involucrin/μmol lipid
free Ca++ concentration at which binding to SLVs was first detected ([2]; SLVs containing 15 mol % PS): 1 :M
free Ca++ concentration for maximal binding to SLVs ([2]; SLVs containing 15 mol % PS, saturating involucrin): > 20 µM
